From patent publication US20050037969A1 (ARBOR VITA, published 2005)
Ends that are not written are not given here. * marks the point of attachment. Biotin = O=C1N[C@H]2[C@H](CS[C@H]2CCCCC(=O)*)N1

T1: GST-TAX-IP43 PDZ domain fusion protein (human, UniProt Q13884 109-180)
T1 construct: also called TAX43; not shown: glutathione S-transferase encoded by vector pGEX-3X (Pharmacia)
T1 sequence: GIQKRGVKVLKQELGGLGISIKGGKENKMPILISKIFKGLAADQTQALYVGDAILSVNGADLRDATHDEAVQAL

T2: GST-PTN-4 PDZ domain fusion protein (Homo sapiens (Human), UniProt P29074 517-605)
T2 construct: also called protein-tyrosine phosphatase meg1; not shown: glutathione S-transferase encoded by vector pGEX-3X (Pharmacia)
T2 sequence: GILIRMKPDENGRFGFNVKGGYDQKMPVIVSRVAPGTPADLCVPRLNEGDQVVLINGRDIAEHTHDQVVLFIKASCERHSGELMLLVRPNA

T3: GST-MPP1 PDZ domain fusion protein (Homo sapiens (Human), UniProt Q00013 67-152)
T3 construct: also called p55; 55 Kd erythrocyte membrane protein; not shown: glutathione S-transferase encoded by vector pGEX-3X (Pharmacia)
T3 sequence: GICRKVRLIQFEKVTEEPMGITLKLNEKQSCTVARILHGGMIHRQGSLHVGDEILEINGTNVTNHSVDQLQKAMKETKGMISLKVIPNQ

T4: GST-prIL16 fusion protein (PDZ domains 1-2) (Homo sapiens (Human), UniProt Q14005 1111-1324)
T4 construct: also called putative interleukin 16 precursor; not shown: glutathione S-transferase encoded by vector pGEX-3X (Pharmacia)
T4 sequence: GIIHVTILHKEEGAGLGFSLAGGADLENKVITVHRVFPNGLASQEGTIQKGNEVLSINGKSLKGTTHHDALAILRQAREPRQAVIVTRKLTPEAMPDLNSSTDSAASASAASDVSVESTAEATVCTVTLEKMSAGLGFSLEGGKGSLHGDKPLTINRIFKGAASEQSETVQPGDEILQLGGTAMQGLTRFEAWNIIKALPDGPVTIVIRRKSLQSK

T5: GST-AF6 PDZ domain fusion protein (Homo sapiens (Human), UniProt P55196 1001-1093)
T5 construct: also called af-6 protein; not shown: glutathione S-transferase encoded by vector pGEX-3X (Pharmacia)
T5 sequence: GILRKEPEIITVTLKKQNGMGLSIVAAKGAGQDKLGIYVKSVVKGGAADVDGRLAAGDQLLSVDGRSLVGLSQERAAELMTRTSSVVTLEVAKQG

T6: GST-RGS12 PDZ domain fusion protein (human, UniProt O14924 17-85)
T6 construct: also called human regulator of G-protein signalling 12; not shown: glutathione S-transferase encoded by vector pGEX-3X (Pharmacia)
T6 sequence: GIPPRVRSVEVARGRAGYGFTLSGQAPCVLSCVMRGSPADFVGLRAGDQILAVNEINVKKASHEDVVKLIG

T7: GST-PDZK1 fusion protein (PDZ domains 2-4) (Homo sapiens, UniProt Q5T2W1 134-457)
T7 construct: not shown: glutathione S-transferase encoded by vector pGEX-3X (Pharmacia)
T7 sequence: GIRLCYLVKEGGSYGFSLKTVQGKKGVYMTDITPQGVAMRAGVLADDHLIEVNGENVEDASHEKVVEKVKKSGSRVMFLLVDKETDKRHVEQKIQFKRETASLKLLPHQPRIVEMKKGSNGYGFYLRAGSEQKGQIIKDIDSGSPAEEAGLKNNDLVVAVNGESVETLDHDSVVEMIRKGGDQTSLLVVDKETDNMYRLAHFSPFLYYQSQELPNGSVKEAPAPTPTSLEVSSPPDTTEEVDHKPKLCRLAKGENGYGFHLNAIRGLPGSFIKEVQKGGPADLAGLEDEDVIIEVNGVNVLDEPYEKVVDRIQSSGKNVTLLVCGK

T8: KIAA0807 (PDZ domain)-GST fusion protein (human, UniProt Q6P0Q8 1104-1192)
T8 construct: also called K807; KIAA807; not shown: glutathione S-transferase encoded by vector pGEX-3X (Pharmacia)
T8 sequence: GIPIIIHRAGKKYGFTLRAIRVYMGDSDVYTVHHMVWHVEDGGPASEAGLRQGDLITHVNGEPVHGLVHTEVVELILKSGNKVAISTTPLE

T9: TAX-IP2L PDZ-GST fusion protein (Homo sapiens (Human), UniProt Q8TF64 107-197)
T9 construct: Order of GST and PDZ part and limits not seen in the excerpts
T9 sequence: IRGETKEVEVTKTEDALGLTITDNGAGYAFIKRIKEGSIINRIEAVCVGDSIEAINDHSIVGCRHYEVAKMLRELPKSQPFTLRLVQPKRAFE

T10: MINT3 PDZ-GST fusion protein
T10 construct: Order of GST and PDZ part and limits not seen in the excerpts
T10 chain: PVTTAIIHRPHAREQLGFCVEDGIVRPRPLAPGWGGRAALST

T11: K858 PDZ-GST fusion protein (Homo sapiens (Human), UniProt Q8WWI1 1038-1131)
T11 construct: Order of GST and PDZ part and limits not seen in the excerpts
T11 sequence: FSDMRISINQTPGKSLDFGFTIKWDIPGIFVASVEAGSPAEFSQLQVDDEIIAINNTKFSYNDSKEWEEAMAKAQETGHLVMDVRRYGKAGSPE

T12: ConEn PDZ-GST fusion protein (Homo sapiens (Human), UniProt Q969H4 193-287)
T12 construct: The label ConEn is not explained in the excerpts
T12 sequence: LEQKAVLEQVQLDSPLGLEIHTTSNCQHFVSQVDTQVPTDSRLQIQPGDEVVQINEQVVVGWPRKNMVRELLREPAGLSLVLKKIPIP


Assays:
Assay in all cases: A/G assays
[1] = molecular target: T1, GST-TAX-IP43 PDZ domain fusion protein
[2] = molecular target: T2, GST-PTN-4 PDZ domain fusion protein
[3] = molecular target: T3, GST-MPP1 PDZ domain fusion protein
[4] = molecular target: T4, GST-prIL16 fusion protein (PDZ domains …)
[5] = molecular target: T5, GST-AF6 PDZ domain fusion protein
[6] = molecular target: T6, GST-RGS12 PDZ domain fusion protein
[7] = molecular target: T7, GST-PDZK1 fusion protein (PDZ domains …)
[8] = molecular target: T13, GST-TIAM1 PDZ domain fusion protein (Homo sapiens (Human), UniProt Q13009 845-931)
T13 construct: also called TLAM1; T-lymphoma invasion and metastasis inducing protein 1; not shown: glutathione S-transferase encoded by vector pGEX-3X (Pharmacia)

[9] = molecular target: T8, KIAA0807 (PDZ domain)-GST fusion protein
[10] = molecular target: T9, TAX-IP2L PDZ-GST fusion protein
[11] = molecular target: T10, MINT3 PDZ-GST fusion protein
[12] = molecular target: T14, PICK1 PDZ-GST fusion protein (Bos taurus (Bovine), UniProt Q2T9M1 17-105)
T14 construct: Order of GST and PDZ part and limits not seen in the excerpts

[13] = molecular target: T15, K316 PDZ-GST fusion protein (Homo sapiens (Human), UniProt Q14CM0 72-159)
T15 construct: Order of GST and PDZ part and limits not seen in the excerpts

[14] = molecular target: T11, K858 PDZ-GST fusion protein
[15] = molecular target: T12, ConEn PDZ-GST fusion protein
[16] = molecular target: T16, NSP PDZ-GST fusion protein (Homo sapiens (Human), UniProt Q92743 370-466)
T16 construct: The label NSP is not explained in the excerpts
T16 sequence (Q92743 other isoform, or with tags, fused parts or gaps limits assumed): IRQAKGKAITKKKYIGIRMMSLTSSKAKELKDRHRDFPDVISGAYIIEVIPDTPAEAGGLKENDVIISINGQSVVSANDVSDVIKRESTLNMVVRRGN

T14 sequence (Q2T9M1 other isoform, or with tags, fused parts or gaps limits assumed): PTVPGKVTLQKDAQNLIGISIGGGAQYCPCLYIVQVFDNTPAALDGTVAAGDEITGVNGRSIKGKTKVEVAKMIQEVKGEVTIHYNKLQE
T13 sequence (Q13009 other isoform, or with tags, fused parts or gaps): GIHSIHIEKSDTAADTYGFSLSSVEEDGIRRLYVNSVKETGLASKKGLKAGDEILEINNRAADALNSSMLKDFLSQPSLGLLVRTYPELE
T15 sequence (Q14CM0 72-159 limits assumed): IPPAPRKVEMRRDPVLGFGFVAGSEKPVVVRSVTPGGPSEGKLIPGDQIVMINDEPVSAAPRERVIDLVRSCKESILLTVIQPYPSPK

| Binder | binding result [1] | binding result [2] | binding result [3] | binding result [4] | binding result [5] | binding result [6] | binding result [7] | binding result [8] | binding result [9] | binding result [10] | binding result [11] | binding result [12] | binding result [13] | binding result [14] | binding result [15] | binding result [16] |
| --- | --- | --- | --- | --- | --- | --- | --- | --- | --- | --- | --- | --- | --- | --- | --- | --- |
| Biotin-GTSDMKDLVGNIEQNEHSVI (Only the last four residues are seen in the excerpts) [Mannose receptor C-terminal peptide AA31L] | no binding | no binding | no binding | no binding | no binding | no binding | no binding | no binding | no binding | no binding | no binding | no binding | no binding | no binding | no binding | no binding |
| Biotin-ISKATPALPTVSISSSAEV (also called AA1L-R) [Clasp-1 C-terminal peptide AA1L, biotinylated] | no binding | no binding | no binding | no binding | no binding | no binding | no binding | no binding | no binding | no binding | no binding | no binding | no binding | no binding | no binding | no binding |
| Biotin-SSKSKSSEESQTFFGLYKL (not fully specified, also called FasLigand; Fas ligand) [FasL C-terminal peptide AA23L-M, biotinylated] | no binding | no binding | no binding | no binding | no binding | no binding | no binding | no binding | no binding | no binding | no binding | no binding | no binding | no binding | no binding | no binding |

Continued, values first:

| binding result [1] | binding result [2] | binding result [3] | binding result [4] | binding result [5] | binding result [6] | binding result [7] | binding result [8] | binding result [9] | binding result [10] | binding result [11] | binding result [12] | binding result [13] | binding result [14] | binding result [15] | binding result [16] | Binder |
| --- | --- | --- | --- | --- | --- | --- | --- | --- | --- | --- | --- | --- | --- | --- | --- | --- |
| no binding | no binding | no binding | no binding | no binding | no binding | no binding | no binding | no binding | no binding | no binding | no binding | no binding | no binding | no binding | no binding | Biotin-SSSQSLESDGSYQKPSYIL (Only the last four residues are seen in the excerpts) [CD62E C-terminal peptide AA48L] |
| no binding | no binding | no binding | no binding | no binding | no binding | no binding | no binding | no binding | no binding | no binding | no binding | no binding | no binding | no binding | no binding | Biotin-LERTSSVSPSTAEPELSIVF (Only the last four residues are seen in the excerpts) [CC CKR-3 C-terminal peptide AA43L] |
| no binding | no binding | no binding | no binding | no binding | no binding | no binding | no binding | no binding | no binding | no binding | no binding | no binding | no binding | no binding | no binding | Biotin-ENLAPVTTFGKTNGYIA (also called CD148 (DEP-1)) [CD148 C-terminal peptide AA19L, biotinylated] |
| no binding | no binding | no binding | no binding | no binding | no binding | no binding | no binding | no binding | no binding | no binding | no binding | no binding | no binding | no binding | no binding | Biotin-LNFPLLQGIRVHGMEALGSF (Only the last four residues are seen in the excerpts) [CD114 (G-CSFR) C-terminal peptide AA27L] |
